Consider two substances from EP4722251.

The target in assay [1] is Recombinant human TFPI protein. The experiment in a line: BLI; fit kinetic; antibody as IgG; antigen as not_told; on the surface: binder; avidity not_told. Particulars: 30.0 °C; for koff: pH 7.4. A general note: BLI is a label-free optical method that tracks binding on a fibre tip over time.
The next assay deals with Human TFPI/His. Briefly: ELISA; fit not_stated; antibody as IgG; antigen as monomer; on the surface: target; avidity possible. For orientation: ELISA stands for enzyme-linked immunosorbent assay.

Broadly, the koff is a measure of how fast the partners let go of each other. By EC50 is commonly meant the concentration needed to bring the measured effect to its halfway point. On to Concizumab, for which the Koff Ratio (pH6.0/pH7.4) in assay [1] (pH 6.0, second pH 7.4) stood at 0.9. Moreover, the koff came to 4.01e-07 s⁻¹ in assay [1] and 3.6e-07 s⁻¹ in assay [1] (second pH 6.0). In addition, the EC50 in the assay with Human TFPI/His (pH 4.0) worked out at 16.5 ng/mL; with Human TFPI/His (pH 4.5) it was 4.94 ng/mL; in the assay with Human TFPI/His (pH 5.0) it was 4.83 ng/mL; in the assay with Human TFPI/His (pH 5.5), 5 ng/mL; in the assay with Human TFPI/His (pH 6.0) it was 6.1 ng/mL; with Human TFPI/His (pH 6.5), 4.9 ng/mL. In addition, the EC50 with Human TFPI/His (pH 7.4) was 4.25 ng/mL.
For the substance Marstacimab, the EC50 in the assay with Human TFPI/His (pH 4.0) came to 5.87 ng/mL; with Human TFPI/His (pH 4.5), 3.15 ng/mL; with Human TFPI/His (pH 5.0) it was 3.97 ng/mL; with Human TFPI/His (pH 5.5) it was 2.18 ng/mL; with Human TFPI/His (pH 6.0) it was 3.19 ng/mL; in the assay with Human TFPI/His (pH 6.5), 3.87 ng/mL. This substance came in with an EC50 with Human TFPI/His (pH 7.4) of 4.01 ng/mL.
